Test results published in the domain aggregation screens of Martell et al. (2025).

Experiment: soluble fraction after stress (log2 fold change); higher = more stays soluble; pooled small domains, quantitative proteomics
Conditions: stress: 50 degC
Method in brief: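 Pooled custom libraries of small protein domains were each held under stress at 50°C. The read-out, high-throughput quantitative proteomics, tracked how much of each protein stayed soluble. This is reported as a base-two log fold change used to indicate aggregation propensity. Higher values mean more protein remains in solution.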

In order of falling “soluble fraction (log2)” value:
1. HMHSEISGGSKDPFRFMPHLGVEDIHAETDRLSGSGVEFIREPDQESWGGWVATFKDPDGNILQLLQL  0.25
2. HMHGERVVTAGQTVRVVFTSNGLQVSSEGKALAAGAVGDDIQVRAASGKVIRGTVTGPGVVQV  0.231
3. HMHMSKKLADSISALRKKNGLSQEQLAEKIGISRQTVSNWERGIATPDVETLNLISKLFDEDLSVMING  0.199
4. HMHNPSYDMSKDVDILVMKFRDYNNLTDDEARFLLDKAKDAYYNTGKEILSDNEYDTLEKSLGQE  0.178
5. HMHPNPLTEQEIAVLKGIAQGLSNQEIADQLYLSNGTVRNYVTNILSKLDAGNRTEAANIAKESGW  0.143
6. HMHPEPDPVLFIDGKEYPYDKLSELDETRVQSMTILPKKSAVKKYGDKYANRSIMEITLKKEN  0.0957
7. HMHRFAVLDTVREVAAGGVAATLSIGVGRDADSFDALFKNASMALEMALSRGGDQAVVKDRMNFQFYGG  0.0659
8. HMHSQVFTDPDKAKNAVVKLGAPLVVKADGLALGKGVIIAQNPQAAKEAVASVGSSGISSISVT  0.0607
9. HMHGLNQNKPIPIADIVNSVNNYLTSLGKKTITDNSVLSNLKKAAKYLNTAYNLVLRPDSLNMTVTLL  0.0467
10. HMHQPPDLDDFEAFVGRVKPALLQALVATYGPVDGREATVDALSWAWEHWDRLADVDHPVGYLYRV  0.0368
11. HMIDAKTTLQELTQKSGKKPEYRLIKIEGPDHLRRFTVEVFIDGQSMGTGTGHSKKEAEQNAANFALKNLQ  0.0235
12. HMIAVSQEQIKQIIVDDPSFHDANGKFSQALLTQYLNQRRMSEDQFVEEIRDQFLFQNLQNLVQNG  0.0233
13. HMHPSNQELTKVLAQGSELVLAQKYIEASQIFTRVIEIDQTWAEAWNKRATVFYLLQNYEASQKDIDEV  0.0182
14. HMHIMINPDQLSPEQIQSIRTWAEEGLDLNAIQKRLHEDLNIKLTFMDTRFLLQDLDIRIRQPEPEPEAEQ  -0.00841
15. HMIALKNLREEKRMTQAELSKDLEISPSAIGMYEQGRRVPDVSTLKKISAYFNVSIDYLLGNSTSKDI  -0.018
16. HMIAVLKQGVSKQQVENLITWFRSRGLDVHISEGKFQTIIGLIGDTSKVDIDLLNGLEIIESVKRI  -0.0376
17. HMHRGEIVDGVIASVNPRSILIDIGGKSDALVHPRELERMSDEDLRSLKPGQDVSVYVIETDSDGTMLVSL  -0.0402
18. HMIDFDEQGNLWVHEMGPRHGDELNLIEKARNYGYPTVSQGDHYSGVKISNHEDIPIFKSPEKAWVPAISP  -0.0541
19. HMHGEAVVVPNVKGLPMRQAENEIYKQSLKAVAIDSSYVKGMPPGAILEQNPAGGSKVKKGRTVYLTINMD  -0.0918
20. HMHLTRYLHTMIRAANLDDTLDFFVEKLGLIEAYRYSNEAGRFTLVFLSAPDDLESAQSRQAPLVEITYN  -0.107
21. HMHMKTIEWDSLVLIMYKDMKYLKRINEGQSFHGKGGMLNYADLIGKTYGIRFGQYEIFEPSLEDIVMYG  -0.126
22. HMIDEQDLKKYILISTSVEELTDYLGATDRMLYDYLYSLKHVGQYWQLNERFLLDLYKLPNLVIVDKEDLE  -0.136
23. HMHTGEVVNGKVIDVKEDQIILNVGFKSDGIITRSEYSNDNSLDLRTVVNVGDDMEAKVLKINDGEGQVLL  -0.185
24. HMHTDDDGITEAFPHLRLLSLGEDILDLLEKSRFIRKLNNELVYYVVDFREQNSIDGRRYHPSIYHNL  -0.258
25. HMHTPSGALLSAIEKEWGSFDNFKKEFTTAATSLFGSGWVWLAKDKKGKLYILSENNAGNPITKGYTPILG  -0.262
26. HMHKIRRQTKITKSLLDQIEGIGSSRKKALLNHFGSAKAVGEAGETDLGTVKGISNSLAKKIYDFFHAT  -0.281
27. HMIAALEGKQAMVLDQVSLHHGQVKLGGEVWTARPLNDQDVYEPGDRVTVMRIDGATAVVWRN  -0.281
28. HMIDAAHLEKAILSLPEGARAVFVLIETEGFAHREVAELLGISEGTSKSQLNYAKKRLREILV  -0.311
29. HMHVLNEEYYNRIKAIQFTMNHDDGNSLNDIEKSDIILLGVSRTSKTPTSIYLANRGLRTSNIPLINEK  -0.326
30. HMHINLEGLKKIDFRKKIGFLFGSEASGLSNKEVSYANYTLQIPTNINFKSLNLSHSLIIIAQFISSLLNS  -0.333
31. HMIADPLVINKLMDSMALAINDYNPDSVEPVLDELRQYFSENQLRELSKAMDDFDFDEALNALTLLRT  -0.382
32. HMIAASPVGGIDRVLELLDARGQRVAWIEASGTEGGQRLRLGWIDAQGAERHGAWVPWSADDLLLYA  -0.387
33. HMHNISQTGRRIAGMTQERWAEALDISVESVRLYESGRGMPSDDVATRMVEVSGAPVLGYWH  -0.407
34. HMHVYSYPAAVKIKNAVGREMMVTLLGRSGTHVQFARQDGEEFVYPISSLDLAAQTLISKYPNDGIKN  -0.444
35. HMHLYDMYNLTEKEISIIRLIANGLNNKEISQELFLSEGTIKNNITNILAKLELRDRTQLAIFAFKNKIVI  -0.484
36. HMHVSLADQAYKTIRTNILNLTYPPGTQLTEAKLASDLNMSRSPVRTAIKMLQADGLLVSDYYKSMTVK  -0.514
37. HMIAASQVLRDARQRSRLTQAELGRRADVPQSVISAYESARREPSVDMLARLVAAAGFDLRIGLTP  -0.541
38. HMHLLGASIAAYRKKAGMTQEDLGRALFVSGQAVSRWERGGTPDSDMLPKIADVLGISLDTLFGRS  -0.559
39. HMHMELHEKIRLARELNKWSQEEVAEKLEMSPSGYAKIERGETALNIPRLEQIAEIFNIDIWELVKA  -0.573
40. HMIALLRLGTAPDIKAQAPLATILARHNGEMSAKDLWQRFGGEIDTFYAQLKTEVAHGWILEPT  -0.617
41. HMHLDIGQLVQRILADIQVGKLADGQRKLPAEPVLMERYQVTRYTLRQALKQLSNMGYTYQMHGIGTFVRQ  -0.863
42. HMHTGLAELTDRERDVLRLIATGMTNAAIGSALAYSPSTIRADTVSIYRKLEVRGRAEAAAVAVAAGLTQP  -1.26
43. HMHQKELLNLSYKEAKRYILDDFERVFFTNLLRKTGGNVSRAAQLAQVHRKNLYVKLTELGIDPRQFG  -1.43
44. HMHQLQLDSRSRLHMTGVIEVESFDEATIVLTTTRGTLIVRGENLHLQLLRLDGGEVLVDGTVDSLSYE  -1.5
45. HMHLKRQEAINLGAYLLGAELRIHRLSLEELGSERIDEMLAAINYKTLDDLLADIGLGNRPARFVARQLG  -1.53
46. HMHMIDDYLARIGQLIRDARQHRGWTQVQLAEALGTSQSAVNRIERGNQNISLEMIARIGEALGSEIVSLG  -1.62
47. HMHLKDEHGLTPKQRAFADEYVITLNATVSYKKIYSVKRDSVASTNGSRLLGNANVKAYIDKRLEE  -2.19
48. HMHLTNIPKGFTPSFDTKQWIVEEFGERYNYDNELKIFINHYRASGTTKSDWQYAFRSWLLRAKKFT  -2.32
49. HMHLRYTYIYDNENRVTSKEASKWDSTQEAWVPYFKMNVSYVNNEVELSYARWNSKSNAYDSSIKKTI  -2.36
50. HMHMHTADDFKQLAKHTSNGRLRTRYLALYHFKKGETRTQIAAYLGVARGSVNTWVSNYLAYGLEGLQS  -2.56
